Consider 1 molecule from paper PMC2063981 (The Journal of Cell Biology, 2007).

In this assay the target is GST–Rab7 (wild type, loaded with GTP or GTPγS) (UniProt P51149 1-207). Kind of assay: pull-down.
GST–Rab7 (wild type, loaded with GTP or GTPγS), sequence (P51149 whole entry): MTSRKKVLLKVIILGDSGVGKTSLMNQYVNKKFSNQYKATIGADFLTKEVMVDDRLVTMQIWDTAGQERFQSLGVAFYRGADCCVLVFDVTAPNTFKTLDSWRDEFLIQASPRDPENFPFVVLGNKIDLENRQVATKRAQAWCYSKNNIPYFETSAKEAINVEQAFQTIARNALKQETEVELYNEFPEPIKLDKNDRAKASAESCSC

B1: in vitro–translated 35S-labeled ORP1L (full length) (natural protein, human, UniProt Q9BXW6-1 1-950, looked up)
chain: MNTEAEQQLLHHARNGNAEEVRQLLETMARNEVIADINCKGRSKSNLGWTPLHLACYFGHRQVVQDLLKAGAEVNVLNDMGDTPLHRAAFTGRKELVMLLLEYNADTTIVNGSGQTAKEVTHAEEIRSMLEAVERTQQRKLEELLLAAAREGKTTELTALLNRPNPPDVNCSDQLGNTPLHCAAYRAHKQCALKLLRSGADPNLKNKNDQKPLDLAQGAEMKHILVGNKVIYKALKRYEGPLWKSSRFFGWRLFWVVLEHGVLSWYRKQPDAVHNIYRQGCKHLTQAVCTVKSTDSCLFFIKCFDDTIHGFRVPKNSLQQSREDWLEAIEEHSAYSTHYCSQDQLTDEEEEDTVSAADLKKSLEKAQSCQQRLDREISNFLKMIKECDMAKEMLPSFLQKVEVVSEASRETCVALTDCLNLFTKQEGVRNFKLEQEQEKNKILSEALETLATEHHELEQSLVKGSPPASILSEDEFYDALSDSESERSLSRLEAVTARSFEEEGEHLGSRKHRMSEEKDCGGGDALSNGIKKHRTSLPSPMFSRNDFSIWSILRKCIGMELSKITMPVIFNEPLSFLQRLTEYMEHTYLIHKASSLSDPVERMQCVAAFAVSAVASQWERTGKPFNPLLGETYELVRDDLGFRLISEQVSHHPPISAFHAEGLNNDFIFHGSIYPKLKFWGKSVEAEPKGTITLELLEHNEAYTWTNPTCCVHNIIVGKLWIEQYGNVEIINHKTGDKCVLNFKPCGLFGKELHKVEGYIQDKSKKKLCALYGKWTECLYSVDPATFDAYKKNDKKNTEEKKNSKQMSTSEELDEMPVPDSESVFIIPGSVLLWRIAPRPPNSAQMYNFTSFAMVLNEVDKDMESVIPKTDCRLRPDIRAMENGEIDQASEEKKRLEEKQRAARKNRSKSEEDWKTRWFHQGPNPYNGAQDWIYSGSYWDRNYFNLPDIY
modifications: 35S-labeled
Turning to B1, the “fold increase of binding in the presence of m9” value is ~4 fold.
